Assay [1] deals with T1, human HER1 (human, UniProt P00533 25-1210).
T1 construct: also called EGFR; ErbB1
Description: FACS, CHO-HER1. (A flow cytometer gives signals particle by particle.)

In assay [2] the target is T2, human HER2 (human, UniProt P04626 23-1255).
T2 construct: also called hHER2
The experiment in a line: FACS, CHO-HER2.

Assay [3] has as its target T3, human HER4 (human, UniProt Q15303 26-1308). The experiment in a line: FACS, CHO-HER4.
Assay [4] has as its target T1, human HER1. Description: FACS CHO-HER1, 222 nM.
For assay [5], the target named is T1, human HER1. The experiment in a line: FACS CHO-HER1, 667 nM.
Assay [6] addresses T2, human HER2. Description: FACS CHO-HER2, 222 nM.
Assay [7] has as its target T2, human HER2. The experiment in a line: FACS CHO-HER2, 667 nM.
The target of assay [8] is T3, human HER4. The experiment in a line: FACS CHO-HER4, 222 nM.
In assay [9] the target is T3, human HER4. Description: FACS CHO-HER4, 667 nM.
For assay [10], the target named is T1, human HER1. The experiment in a line: FACS CHO-HER1, 2000 nM.
Assay [11] has as its target T2, human HER2. Description: FACS CHO-HER2, 2000 nM.
Assay [12] addresses T3, human HER4. Description: FACS CHO-HER4, 2000 nM.
Assay [13] deals with T4, hHER3 full length (human, UniProt P21860 20-1342). The experiment in a line: cell-based or functional assay.
The target of assay [14] is T4, hHER3 full length. The experiment in a line: cell-based or functional assay. This is another data set of the same source.
Assay [15] addresses T5, hHER3 ECD (human HER3 extracellular domain) (human, UniProt P21860 20-643).
T5 construct: also called recombinant HER3-ECD
The experiment in a line: ELISA, coated hHER3-ECD.

For assay [16], the target named is T6, cHER3ECD (Maccaca fascicularis HER3 extracellular domain) (Macaca fascicularis, UniProt P21860 20-643 (human entry)).
T6 construct: also called cyno HER3ECD; cyno HER3-ECD
T6 chain: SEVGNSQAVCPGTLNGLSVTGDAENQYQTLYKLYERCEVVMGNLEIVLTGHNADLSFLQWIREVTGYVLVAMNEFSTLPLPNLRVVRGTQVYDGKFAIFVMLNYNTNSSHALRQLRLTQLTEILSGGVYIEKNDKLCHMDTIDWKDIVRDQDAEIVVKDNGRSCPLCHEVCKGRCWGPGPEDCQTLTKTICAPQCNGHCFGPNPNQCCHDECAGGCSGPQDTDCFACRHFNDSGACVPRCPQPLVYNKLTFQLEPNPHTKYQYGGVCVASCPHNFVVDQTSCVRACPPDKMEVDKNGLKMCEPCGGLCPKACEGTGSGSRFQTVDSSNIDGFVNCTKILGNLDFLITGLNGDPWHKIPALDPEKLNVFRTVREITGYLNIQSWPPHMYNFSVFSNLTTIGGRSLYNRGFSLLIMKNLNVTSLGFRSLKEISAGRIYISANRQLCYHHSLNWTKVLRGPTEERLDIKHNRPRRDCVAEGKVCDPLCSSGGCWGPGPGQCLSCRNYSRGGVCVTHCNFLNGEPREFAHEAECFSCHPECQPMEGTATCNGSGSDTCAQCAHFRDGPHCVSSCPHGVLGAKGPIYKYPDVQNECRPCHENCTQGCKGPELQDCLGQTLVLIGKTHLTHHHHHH
Description: ELISA, coated cHER3-ECD. In general terms: ELISA stands for enzyme-linked immunosorbent assay.

The target in assay [17] is T4, hHER3 full length. The experiment in a line: FACS, 400 nM, competitor 04C07-biotin.
The target in assay [18] is T4, hHER3 full length. The experiment in a line: FACS, 400 nM, competitor 04F10-biotin.
In assay [19] the target is T4, hHER3 full length. The experiment in a line: FACS, 400 nM, competitor 17C08-biotin.
The target of assay [20] is T4, hHER3 full length. The experiment in a line: FACS, 400 nM, competitor 18E08-biotin.
The target in assay [21] is T4, hHER3 full length. The experiment in a line: FACS, 400 nM, competitor 21B02-biotin.
Assay [22] has as its target T4, hHER3 full length. The experiment in a line: FACS, 400 nM, competitor 23F05-biotin.

T3 sequence (Q15303 26-1308 limits assumed): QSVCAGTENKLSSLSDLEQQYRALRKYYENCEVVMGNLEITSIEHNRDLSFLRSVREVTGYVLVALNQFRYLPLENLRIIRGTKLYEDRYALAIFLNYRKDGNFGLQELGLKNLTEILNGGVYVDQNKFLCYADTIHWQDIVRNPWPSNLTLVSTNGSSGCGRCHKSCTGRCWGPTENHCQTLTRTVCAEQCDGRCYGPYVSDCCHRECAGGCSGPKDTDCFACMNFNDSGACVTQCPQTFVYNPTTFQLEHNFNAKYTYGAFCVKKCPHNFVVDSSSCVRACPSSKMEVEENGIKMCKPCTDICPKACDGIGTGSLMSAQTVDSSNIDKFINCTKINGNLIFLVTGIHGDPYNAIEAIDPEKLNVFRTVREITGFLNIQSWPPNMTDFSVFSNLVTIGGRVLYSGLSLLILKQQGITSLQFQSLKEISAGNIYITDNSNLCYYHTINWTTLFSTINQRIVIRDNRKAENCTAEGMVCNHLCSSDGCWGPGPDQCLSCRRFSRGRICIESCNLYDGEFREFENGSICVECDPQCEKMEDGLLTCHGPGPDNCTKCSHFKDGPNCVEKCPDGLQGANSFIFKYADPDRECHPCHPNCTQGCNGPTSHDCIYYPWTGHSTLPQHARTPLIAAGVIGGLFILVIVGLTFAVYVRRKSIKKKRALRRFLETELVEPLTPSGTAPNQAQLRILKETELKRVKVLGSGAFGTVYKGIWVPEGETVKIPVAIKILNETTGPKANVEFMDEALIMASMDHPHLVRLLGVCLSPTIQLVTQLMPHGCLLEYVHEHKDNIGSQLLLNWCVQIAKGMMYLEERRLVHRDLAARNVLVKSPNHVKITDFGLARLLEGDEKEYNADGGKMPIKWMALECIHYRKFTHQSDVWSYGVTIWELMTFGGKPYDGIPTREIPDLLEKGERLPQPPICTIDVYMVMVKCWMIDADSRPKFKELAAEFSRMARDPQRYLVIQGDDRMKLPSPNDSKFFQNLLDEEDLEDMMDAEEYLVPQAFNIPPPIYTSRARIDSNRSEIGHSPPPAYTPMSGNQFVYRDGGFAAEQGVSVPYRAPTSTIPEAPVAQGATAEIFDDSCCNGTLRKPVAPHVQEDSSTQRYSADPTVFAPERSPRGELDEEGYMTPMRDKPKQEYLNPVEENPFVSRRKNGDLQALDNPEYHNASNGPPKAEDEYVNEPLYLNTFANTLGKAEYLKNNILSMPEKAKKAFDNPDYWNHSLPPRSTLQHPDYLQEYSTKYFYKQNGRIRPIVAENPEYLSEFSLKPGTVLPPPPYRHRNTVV

B1: 04C07 (VHH)
VHH: EVQLVESGGGLVQAGGSLRLSCAASGFTFSSYPMSWVRQAPGKGPAWVSTVSPGGITTSYADSVKGRFTISRDNAKNTLYLQMNSLKPEDTAVYYCLRDLNNRGQGTQVTVSS
notes: also called HER3MS04C07; HER3MS004C07
B1: the binding result in assay [1], in assay [2] and in assay [3] was “no binding (tested: 2000 nM)” each time. Further, the MCF in assay [4] came to 75; in [5], 92; in assay [6] it was 84; in assay [7], 79; in [8], 96; in [9] it was 103. Moreover, the MCF in [10] is 72; in assay [11] it was 154; in [12], 105. Also, in [13], the “IC50, HRG1-β1 induced pHER3, MCF-7” value turned out to be 1.07e-09 M. In addition, the “IC50, HRG1-β1 induced pHER3, MDA-MB468” value in assay [13] is 6.68e-09 M. The “IC50, HRG1-β1 induced pAkt, MCF-7” value in assay [14] amounted to 1.09e-08 M. Further, in assay [14], the “IC50, HRG1-β1 induced pERK1/2, MCF-7” value worked out at 2.79e-08 M. For the same molecule, the EC50 (usually the midpoint of the concentration-response curve) amounted to 0.86 nM in [15] and 0.93 nM in [16]. In addition, the “% competition” value in assay [17] stood at 100%; in assay [18] it was 0%; in [19], 15%; in assay [20], 26%; in [21], 2%; in assay [22], 0%.

B2: 18G11 (VHH)
VHH: EVQLVESGGGLVQPGGSLRLSCAASGTLFKINAMGWYRQAPGKRRELVALITSSDTTDYAESVEGRFTISRDNTWNAVYLQMNSLKPEDTAVYYCHSDHYSMGVPEKRVIMYGQGTQVTVSS
notes: c-myc, His6-tagged form as expressed; also called HER3MS18G11; HER3MS018G11
In the case of B2, the binding result in assay [1], in assay [2] and in assay [3] was “no binding (tested: 2000 nM)” throughout. Besides, the MCF is 101 in assay [4]; 87 in [5]; 109 in assay [6]; 117 in assay [7]; 57 in assay [8]; 56 in assay [9]. Further, the MCF in [10] worked out at 97; in assay [11], 65; in assay [12] it was 124. In addition, the “IC50, HRG1-β1 induced pHER3, MCF-7” value in [13] is 1.03e-08 M. The “IC50, HRG1-β1 induced pHER3, MDA-MB468” value in assay [13] stood at 7.03e-09 M. The “IC50, HRG1-β1 induced pAkt, MCF-7” value in [14] was 1.38e-07 M. Also, the “inhibition of HRG1-β1 induced pERK1/2, MCF-7” value in [14] was below 50 % inhibition. Moreover, the EC50 in assay [15] was 0.72 nM; in assay [16], 0.64 nM. The “% competition” value in [17] was 0%; in assay [18], 0%; in [19], 74%; in assay [20], 97%; in assay [21], 0%; in assay [22] it was 0%.

B3: 17C08 (VHH)
VHH: EVQLVESGGGLMQAGDSLRLSCAASGRAFSSYALGWFRRAPGKERECVAATDRLGDNTYFPDSVKGRFTISRDNAKNTLYLQMNNLKPEDTAVYYCAAGAVRYGVSTSPMNYNYWGQGTQVTVSS
notes: also called 17C8
As to B3, the binding result in assay [1], in assay [2] and in assay [3] was “no binding (tested: 2000 nM)” throughout. The MCF in [4] amounted to 62; in [5], 47; in [6], 160; in [7], 418; in assay [8], 210; in assay [9], 91. The MCF in assay [10] came to 58; in assay [11], 1220; in assay [12], 254. Also, the “IC50, HRG1-β1 induced pHER3, MCF-7” value in assay [13] was 8.98e-08 M. Moreover, the “IC50, HRG1-β1 induced pHER3, MDA-MB468” value in assay [13] is 5.38e-08 M. For the same molecule, the “IC50, HRG1-β1 induced pAkt, MCF-7” value in [14] turned out to be 7.24e-07 M. The “inhibition of HRG1-β1 induced pERK1/2, MCF-7” value in assay [14] is below 50 % inhibition. Also, the EC50 in assay [15] turned out to be 0.62 nM; in [16] it was 0.59 nM. In addition, the “% competition” value was found to be 3% in assay [17]; 77% in [18]; 97% in [19]; 98% in assay [20]; 16% in [21]; 17% in [22].

The values are drawn from patent US20130136748A1 (Ablynx, published 2013).
